Results published in paper PMC10847457 (Cell Discovery, 2024).

B1: PW5-570 (antibody, V domains shown)
VH: QMQLVQSGPEVRKPGTSVKVSCRASVFSFDTSAVQWVRQARGQPLEWIGWIVFGSSNTDYAQKFRDRVTITGDMSTGTAYMELSSLRSEDTAVYYCAAPHCNRTNCHDGFDIWGQGTVVTVSS
VL: EIVLTQSPGTLSLSPGERATLSCRASQSVRSGYLGWYQQKPGQAPRLLIYGAYNRATGIPDRFRGSGSGTDFTLTISRLEPEDFVVYYCQQYDRSPWTFGQGTKVEIK
notes: also called PW5-570 IgG; PW5-570 immunoglobulin G
B2: PW5-535 (antibody, V domains shown)
VH: EVRLVESGGGLVQPGGSLRLSCAASGFTFRNYDIHWVRQTTGKGLEWVSAVGTSGDTYYLDSVKGRFTISREDAKKSVYLQMNSLRAGDTAMYYCVRGDASPDNIYYYMDVWGTGTRVIVSS
VL: DIQVTQSPSPLSASVGDRVTITCRASQTIGKYLNWYHQIPGKAPKLLISAASTLHSGVPSRFSGRGSGTDFTLTISSLQPEDFGTYYCQQSYSSPPWTFGQGTKVEIK
B3: PW5-5 (antibody, V domains shown)
VH: QVQLVQSGAEVKKPGASVKVSCKTSGYTFTDHYMYWVRQAPGQGLEWMGVINPDAGSVTYAQKFQGRVTMTSDTSTSTVYMELSSLRSEDTAVYYCARDLFFIPAANSFDYWGQGTLVTVSS
VL: EIVLTQSPATLSLSPGERATLSCRASQSVSSYLAWYQQKPGQAPRLLIYDATNRATGIPARFSGSGSGTDFTLTISSLEPEDFAVYYCQHRSNWPRMFTFGQGTKLEIK
notes: also called PW5-5 IgG; IgG PW5-5

target: T1, SARS-CoV-2 NTD (aa 1-305) (SARS-CoV-2, UniProt P0DTC2); assay: ELISA; details: both partners purified
T1 construct: source: Expi293 cells, transient transfection (pCMV3), purified

| Binder | binding result |
| --- | --- |
| B1 | no binding |
| B2 | no binding |
| B3 | no binding |

target: T2, SARS-CoV-2 RBD (aa 319-541) (SARS-CoV-2, UniProt P0DTC2); assay: ELISA; details: both partners purified
T2 construct: source: Expi293 cells, transient transfection (pCMV3), purified

| Binder | binding result |
| --- | --- |
| B1 | binds |
| B2 | binds |
| B3 | binds |
